Measured values as given in paper PMC8615399, “Novel Structures of Type 1 Glyceraldehyde-3-phosphate Dehydrogenase from Escherichia coli Provide New Insights into the Mechanism of Generation of 1,3-Bisphosphoglyceric Acid” (Biomolecules, 2021).
Substitutions are numbered along the chain they refer to. In names and notes the source's numbering stands.

B1: glyceraldehyde-3-phosphate dehydrogenase type 1 from Escherichia coli, wild type (enzyme, UniProt P0A9B2 1-331, looked up)
chain: MTIKVGINGFGRIGRIVFRAAQKRSDIEIVAINDLLDADYMAYMLKYDSTHGRFDGTVEVKDGHLIVNGKKIRVTAERDPANLKWDEVGVDVVAEATGLFLTDETARKHITAGAKKVVMTGPSKDNTPMFVKGANFDKYAGQDIVSNASCTTNCLAPLAKVINDNFGIIEGLMTTVHATTATQKTVDGPSHKDWRGGRGASQNIIPSSTGAAKAVGKVLPELNGKLTGMAFRVPTPNVSVVDLTVRLEKAATYEQIKAAVKAAAEGEMKGVLGYTEDDVVSTDFNGEVCTSVFDAKAGIALNDNFVKLVSWYDNETGYSNKVLDLIAHISK
notes: glyceraldehyde-3-phosphate dehydrogenase type 1 (EcGAPDH1), Escherichia coli; EC 1.2.1.12; also called EcGAPDH1; WT; source: purified as previously described [24]
B2: EcGAPDH1 mutant H177A (enzyme, Escherichia coli, UniProt P0A9B2 1-331, looked up)
chain: B1 chain with H177A
notes: glyceraldehyde-3-phosphate dehydrogenase type 1 (EcGAPDH1), Escherichia coli; Made from the wild-type vector by overlap extension PCR; source: purified (Ni-NTA, size-exclusion chromatography)
B3: EcGAPDH1 double mutant C150A+H177A (enzyme, Escherichia coli, UniProt P0A9B2 1-331, looked up)
chain: B1 chain with C150A, H177A
notes: glyceraldehyde-3-phosphate dehydrogenase type 1 (EcGAPDH1), Escherichia coli; source: purified (Ni-NTA, size-exclusion chromatography)
B4: EcGAPDH1 mutant C150A (enzyme, Escherichia coli, UniProt P0A9B2 1-331, looked up)
chain: B1 chain with C150A
notes: as for B2
B5: EcGAPDH1 mutant C150S (enzyme, Escherichia coli, UniProt P0A9B2 1-331, looked up)
chain: B1 chain with C150S
notes: as for B2

Molecular target: the molecule itself
Assay: crystal structure; hanging-drop vapor diffusion at 20 °C, protein 30 mg/mL; space group P4(1)2(1)2; complexes with NAD and phosphate, G3P or BPG; four subunits (O, P, Q, R) in each structure

Stoichiometry N, 4:
B1
B2
B3
B4
B5
